B1: bispecific antibody SY1 (bispecific antibody, human IgG1, kappa)
light: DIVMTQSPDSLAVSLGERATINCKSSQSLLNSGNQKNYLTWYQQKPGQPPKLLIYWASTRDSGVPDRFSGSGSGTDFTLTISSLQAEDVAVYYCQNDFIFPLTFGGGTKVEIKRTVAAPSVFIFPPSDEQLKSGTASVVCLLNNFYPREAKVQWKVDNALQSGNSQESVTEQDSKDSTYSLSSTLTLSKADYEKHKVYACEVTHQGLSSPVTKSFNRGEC
heavy: QVQLQESGPGLVKPSETLSLTCTVSGFSLTRYGVSWIRQPPGKGLEWIGVIWGEGNTNYNPSLKSRVTISKDSSKSQVSLKLSSVTAADTAVYYCARVNFGNALDYWGQGTLVTVSSASTKGPSVFPLAPSSKSTSGGTAALGCLVKDYFPEPVTVSWNSGALTSGVHTFPAVLQSSGLYSLSSVVTVPSSSLGTQTYICNVNHKPSNTKVDKKVEPKSCDKTHTCPPCPAPPVAGPSVFLFPPKPKDTLMISRTPEVTCVVVDVSHEAPEVQFNWYVDGVEVHNAKTKPREEQFNSTFRVVSVLTVVHQDWLNGKEYKCKVSNKGLPAPIEKTISKTKGQPREPQVYTLPPCRDELTKNQVSLWCLVKGFYPSDIAVEWESNGQPENNYKTTPPVLDSDGSFFLYSKLTVDKSRWQQGNVFSCSVMHEALHNHYTQKSLSLSPGK
chain: EVQLVESGGGLVQPGKSLKLSCEASGFTFSGYGMHWVRQAPGRGLESVAYITSSSINIKYADAVKGRFTVSRDNAKNLLFLQMNILKSEDTAMYYCARFDWDKNYWGQGTMVTVSSGGGGSGGGGSGGGGSDIQMTQSPSSLPASLGDRVTINCQASQDISNYLNWYQQKPGKAPKLLIYYTNKLADGVPSRFSGSGSGRDSSFTISSLESEDIGSYYCQQYYNYPWTFGPGTKLEIKGRGRGSDKTHTCPPCPAPPVAGPSVFLFPPKPKDTLMISRTPEVTCVVVDVSHEAPEVQFNWYVDGVEVHNAKTKPREEQFNSTFRVVSVLTVVHQDWLNGKEYKCKVSNKGLPAPIEKTISKTKGQPREPQVCTLPPSRDELTKNQVSLSCAVKGFYPSDIAVEWESNGQPENNYKTTPPVLDSDGSFFLVSKLTVDKSRWQQGNVFSCSVMHEALHNHYTQKSLSLSPGK
notes: YBODY structure: anti-CLDN18.2 Fab arm (2C6.9) and single chain anti-mouse CD3 scFv (2C11)-Fc
B2: bispecific antibody SCS1 (bispecific antibody, human IgG1, kappa)
light: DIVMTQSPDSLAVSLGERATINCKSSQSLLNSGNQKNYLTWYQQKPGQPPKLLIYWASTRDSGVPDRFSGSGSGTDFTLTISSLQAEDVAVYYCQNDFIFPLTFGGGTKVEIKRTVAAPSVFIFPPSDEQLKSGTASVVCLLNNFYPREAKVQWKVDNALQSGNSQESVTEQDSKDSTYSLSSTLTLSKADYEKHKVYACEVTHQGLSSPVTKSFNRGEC
heavy 1: B1 heavy
heavy 2: QVQLQESGPGLVKPSETLSLTCTVSGFSLTRYGVSWIRQPPGKGLEWIGVIWGEGNTNYNPSLKSRVTISKDSSKSQVSLKLSSVTAADTAVYYCARVNFGNALDYWGQGTLVTVSSASTKGPSVFPLAPSSKSTSGGTAALGCLVKDYFPEPVTVSWNSGALTSGVHTFPAVLQSSGLYSLSSVVTVPSSSLGTQTYICNVNHKPSNTKVDKKVEPKSCDKTHTAPAPAPAPAPAPAPAPEVQLVESGGGLVQPGKSLKLSCEASGFTFSGYGMHWVRQAPGRGLESVAYITSSSINIKYADAVKGRFTVSRDNAKNLLFLQMNILKSEDTAMYYCARFDWDKNYWGQGTMVTVSSGGGGSGGGGSGGGGSDIQMTQSPSSLPASLGDRVTINCQASQDISNYLNWYQQKPGKAPKLLIYYTNKLADGVPSRFSGSGSGRDSSFTISSLESEDIGSYYCQQYYNYPWTFGPGTKLEIKGGGGSDKTHTCPPCPAPPVAGPSVFLFPPKPKDTLMISRTPEVTCVVVDVSHEAPEVQFNWYVDGVEVHNAKTKPREEQFNSTFRVVSVLTVVHQDWLNGKEYKCKVSNKGLPAPIEKTISKTKGQPREPQVCTLPPSRDELTKNQVSLSCAVKGFYPSDIAVEWESNGQPENNYKTTPPVLDSDGSFFLVSKLTVDKSRWQQGNVFSCSVMHEALHNHYTQKSLSLSPGK
notes: CSBODY structure: two 2C6.9 Fab arms; second heavy chain (first heavy entry) and first heavy chain with anti-mouse CD3 scFv (2C11) between CH1 and Fc2; also called SCSI
B3: Bispecific antibody molecule YCS4 (bispecific antibody, human IgG1, kappa)
light 1: not shown
light 2: not shown
heavy 1: B1 heavy
heavy 2: EVQLVESGGGLVKPGGSLRLSCAASGFSFSNSAMSWVRQAPGKGLEWVSTISSGDSYTYYADSVKGRFTISRDNAKNSLYLQMNSLRAEDTAVYYCARQGYGNALDYWGQGTLVTVSSASTKGPSVFPLAPSSKSTSGGTAALGCLVKDYFPEPVTVSWNSGALTSGVHTFPAVLQSSGLYSLSSVVTVPSSSLGTQTYICNVNHKPSNTKVDKKVEPKSCDKTHTAPAPAPAPAPAPAPAPQVQLVESGGGVVQPGRSLRLSCAASGFTFSTYAMNWVRQAPGKGLEWVARIRSKYNNYATYYADSVKDRFTISRDDSKNTLYLQMNSLRAEDTAVYYCARHGNFGNSYVSWFAYWGQGTLVTVSSGGGGSGGGGSGGGGSQTVVTQEPSLTVSPGGTVTLTCRSSTGAVTTSNYANWVQQKPGQAPRGLIGGTNKRAPGVPARFSGSLLGGKAALTLSGVQPEDEAEYYCALWYSNLWVFGGGTKVEIKGGGGSDKTHTCPPCPAPPVAGPSVFLFPPKPKDTLMISRTPEVTCVVVDVSHEAPEVQFNWYVDGVEVHNAKTKPREEQFNSTFRVVSVLTVVHQDWLNGKEYKCKVSNKGLPAPIEKTISKTKGQPREPQVCTLPPSRDELTKNQVSLSCAVKGFYPSDIAVEWESNGQPENNYKTTPPVLDSDGSFFLVSKLTVDKSRWQQGNVFSCSVMHEALHNHYTQKSLSLSPGK
notes: CS4 with the first heavy/light chain variable regions replaced by 1E9.2; order of chains: first light, second light, second heavy, first heavy

Key:
Human CLDN18.2 [1] = target: T1, Human CLDN18.2 (human); experiment: flow cytometry, NUGC4-hCLDN18.2 cells
T1 construct: the cell line is named under assay; also called hCLDN18.2; human CLDN18.2 antigen
Procedure: (§1) NUGC4 and NUGC4-hCLDN18.2 cells were cultured, digested with pancreatin and centrifuged to collect cells. The cells were collected and resuspended in buffer (PBS+1% FBS) at 1×10⁴ cells/well in a 96-well plate at 100 μL per well. Then the mixture was centrifuged at 350×g for 5 min, and the supernatant was removed.

Human CLDN18.2 [2] = target: T1, Human CLDN18.2; experiment: flow cytometry, NUGC4 cells (endogenous CLDN18.2)
Procedure: as §1

murine CD3 antigen = target: T2, murine CD3 antigen (murine, UniProt P22646 22-108, limits assumed); experiment: SPR (Biacore T200), murine CD3 antigen on CM5 chip, 1:1 fit
T2 construct: also called Mouse CD3ϵ
T2 sequence (P22646 22-108 limits assumed): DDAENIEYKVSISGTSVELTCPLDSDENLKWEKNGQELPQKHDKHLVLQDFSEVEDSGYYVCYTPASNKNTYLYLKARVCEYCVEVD
Procedure: After the detection was completed, data fitting was carried out on the result pattern by adopting Biacore T200 Evaluation Software in a 1:1 binding fitting mode to obtain an equilibrium dissociation constant (KD).

human CD3 antigen = target: T3, human CD3 antigen (human, UniProt P07766 23-126); experiment: detection method the same as in Examples 2-8 (Biacore)
T3 construct: also called Human CD3ϵ

| Binder | EC50 (Human CLDN18.2 [1]) | EC50 (Human CLDN18.2 [2]) | Kd (murine CD3 antigen) | binding result (human CD3 antigen) |
| --- | --- | --- | --- | --- |
| B1 | 125 nM | 304 nM | 79.3 nM |  |
| B2 | 25.4 nM | 29.1 nM | 94.1 nM |  |
| B3 |  |  |  | binds |

— US20230192903A1 (published 2023)
